Assay results published in publication PMC2917178 (Biochemistry, 2010).

Biological target: H3-H4 (Xenopus laevis, UniProt P84233 1-136; P62799 1-103)
Assay: SEC

B1: co-purified Rtt109-Vps75 complex (complex)
chain 1: MSLNDFLSSVLPVSEQFEYLSLQSIPLETHAVVTPNKDDKRVPKSTIKTQHFFSLFHQGKVFFSLEVYVYVTLWDEADAERLIFVSKADTNGYCNTRVSVRDITKIILEFILSIDPNYYLQKVKPAIRSYKKISPELISAASTPARTLRILARRLKQSGSTVLKEIESPRFQQDLYLSFTCPREILTKICLFTRPASQYLFPDSSKNSKKHILNGEELMKWWGFILDRLLIECFQNDTQAKLRIPGEDPARVRSYLRGMKYPLWQVGDIFTSKENSLAVYNIPLFPDDPKARFIHQLAEEDRLLKVSLSSFWIELQERQEFKLSVTSSVMGISGYSLATPSLFPSSADVIVPKSRKQFRAIKKYITGEEYDTEEGAIEAFTNIRDFLLLRMATNLQSLTGKREHRERNQPVPASNINTLAITMLKPRKKAKALPKT
chain 2: MMSDQENENEHAKAFLGLAKCEEEVDAIEREVELYRLNKMKPVYEKRDAYIDEIAEFWKIVLSQHVSFANYIRASDFKYIDTIDKIKVEWLALESEMYDTRDFSITFHFHGIEGDFKEQQVTKVFQIKKGKDDQEDGILTSEPVPIEWPQSYDSINPDLIKDKRSPEGKKKYRQGMKTIFGWFRWTGLKPGKEFPHGDSLASLFSEEIYPFCVKYYAEAQRDLEDEEGESGLSADGDSEDDDGSLGEVDLPLSDEEPSSKKRKV
modifications: acetyl-lysine at K290 (wildtype Rtt109 used is fully acetylated at K290, unpublished data)
binding result: binds
